Experimental data from patent US12404346B2, “Anti-naloxone and anti-naltrexone monoclonal antibodies and methods of production and use thereof” (Siemens Healthcare Diagnostics Inc., priority 2019, dated 2025).
Changes are numbered by the printed parent chain.

Legend:
[1] = inhibition ELISA, anti-naloxone monoclonal antibodies against key opioids (FIG. 7); type: binding; details: free drug 20 μg/mL, plates coated with ovalbumin conjugate
Source text: (§1) Mice with good anti-drug antibody titers and binding to free drug in the ELISA inhibition assays were selected to proceed with generation of monoclonal antibodies, in a similar manner to that described in U.S. Pat. No. 9,815,907 (issued to Sharma et al. on Nov. 14, 2017). In particular, mice with highest titers and best specificity were boosted three days prior to fusion. On the day of fusion, spleen cells were harvested from these mice and were fused with myeloma cell line P3X63Ag8.653 using PEG-assisted fusion protocols. After about ten days, hybridoma supernatants were screened for anti-naloxone and anti-naltrexone antibodies using a plate ELISA (direct binding and inhibition ELISA for specificity). Positive clones were further expanded and sub-cloned, and supernatants were purified using a Protein A SEPHAROSE® (GE Healthcare, Chicago, IL) column. Purified antibody samples were tested using ELISA for binding to the immunogen (i.e., a conjugate of drug-carrier protein) and to free opioids.
(§2) Antibody solution (Immune mouse bleeds or hybridoma clones supernatant or purified antibody) was screened using an inhibition ELISA procedure according to the following protocol. […] Plate coating was performed for 1 hour or more at room temperature or overnight at about 2° C. to 8° C. The plates were then flicked dry and blocked with 200 μL per well of blocking buffer solution (0.5% Casein solution in PBS containing 0.05% TWEEN® 20 surfactant (Croda International PLC, Snaith, United Kingdom). Plate blocking was performed by incubation for 30 minutes or more at room temperature with plate shaking. The plates were washed using a plate washer (BioTek®, Winooski, VT) with plate stacker with the washing buffer being MILLIQ® water (Millipore Corporation, Billerica, MA) containing 0.05% TWEEN® 20. The monoclonal antibody to be screened was then added to each well along with free drug as follows: 25 μL per well of appropriately diluted culture supernatant (or antibody solution) and added 25 μL of 20 μg/mL of free drug. Incubation was performed for about 1 hour at room temperature with plate shaking. The plate was washed. An enzyme conjugate (goat anti-mouse IgG coupled to HRP diluted in blocking buffer diluted to 1:3000) was added at 50 μL per well. Incubation was performed for about 1 hour at room temperature with shaking. The plate was then washed, and a chromogenic solution (TMB from Moss Substrates, Pasadena MD) was added at a volume of 100 μL per well. If a desired antibody was present in the hybridoma supernatant, then a decrease in optical density was observed compared to the well containing no free drug. The plates were read at 650 nm wavelength using an ELISA plate reader (Molecular Devices, San Jose, CA). Note: appropriate dilution of antibody solution was determined by performing a titration ELISA. The antibody dilution was chosen where around 1.0 optical density was observed.

[2] = inhibition ELISA, anti-naltrexone monoclonal antibodies against key opioids (FIG. 8); type: binding; details: free drug 20 μg/mL, plates coated with ovalbumin conjugate
Source text: as §1, §2

[3] = opiate enzyme multiplied immunoassay with antibody blocker (FIG. 11, FIG. 12); details: cutoff 300 ng/mL; FIG. 11 and FIG. 12

B1: 179B 9E7: anti-naloxone monoclonal antibody generated using naloxone-3-Val-mcKLH; heavy chain SEQ ID NO:241, light chain SEQ ID NO:245 (antibody)
heavy: MYLGLNCVIIVFLLKGVQSEMKLEESGGGLVQPGGSMKLSCTASGFTFSDAWMDWVRQSPEKGLEWVAEIRNKAYNHATYYAESVRGRFTISRDDSKSKMFLEMNSLRPEDTGIYYCIGGIWTDFDYGQGTTLTVSS
light: MESQTQVFVYMLLWLSGVDGDIVMTQSQKFMSTSVGDRVSVTCKASQNVGINVAWYQQKSGQPPKALIYSASSRYSGVPDRFTGSGSGTDFTLTISNVQSEDLAEYFCHQYNNYPLTFGAGTKLDLK
modifications: Amino acid sequence of heavy chain of monoclonal antibody 179B 9E7; Amino acid sequence of light chain of monoclonal antibody 179B 9E7
With B1 the “specificity for naloxone over the other key opioids tested in the inhibition ELISA assay” value [1] was “good specificity for naloxone”.

B2: 179B 9E12: anti-naloxone monoclonal antibody generated using naloxone-3-Val-mcKLH; heavy chain SEQ ID NO:181, light chain SEQ ID NO:185 (antibody, V domains shown)
VH: MGWSWIFLFLLSGTAGVHCQIQLQQSGPELVKPGASVKISCKASDYSFTNSYINWVKQRPGQGLEWIGWIYPGSTNTKYNEKFWDKATLTVDTSSNTAYMELRGLTSEDSAVYFCEMGTHYSYDVMDWGQGTSVTVSS
VL: MEFQTQVFVFVLLWLSGVDGDIVMTPSQKFMSTSVGDRVSITCKASQNVRTSVGWYQQKPGQSPKPLIYATSNRHTGVPDRFTGSGSGTDFSLTITNVQSEDQADYFCLQHWNYPWTFGGGTKLEIK
modifications: Amino acid sequence of heavy chain of monoclonal antibody 179B 9E12; Amino acid sequence of light chain of monoclonal antibody 179B 9E12
In the case of B2, the “specificity for naloxone over the other key opioids tested in the inhibition ELISA assay” value [1] is reported as “good specificity for naloxone”.

B3: 179B 10A7: anti-naloxone monoclonal antibody generated using naloxone-3-Val-mcKLH; heavy chain SEQ ID NO:201, light chain SEQ ID NO:205 (antibody, V domains shown)
VH: B2 VH with N50K, T75A, T77I, W84R, M100I, E101Q, R103S, G104S, S122T
VL: B2 VL with T71A
modifications: Amino acid sequence of heavy chain of monoclonal antibody 179B 10A7; Amino acid sequence of light chain of monoclonal antibody 179B 10A7
For B3, the “specificity for naloxone over the other key opioids tested in the inhibition ELISA assay” value [1] was “good specificity for naloxone”.

B4: 180A 3D3: anti-naltrexone monoclonal antibody generated using naltrexone-3-Val-mcKLH; heavy chain SEQ ID NO:21, light chain SEQ ID NO:25 (antibody)
heavy: MYLGLNCVFIVFLLKGVQSEVNLEESGGGLVQPGGSMKLSCVASGFTFSNYWMNWVRQSPERGLEWVAEISLKSYNYATHYAESVKGRFTISGDESKNSVYLQMNNLRAEDTGIYFCTRGDSYALDYGQRTLVTVSS
light: MEFQTQVLMSLLLCMSGACADIVMTQSPTFLAVTVSKKVTISCTASESLYSSKHKVHYLAWYQKKPEQSPKLLIYGASNRYIGVPDRFTGSGSGTDFTLTISSVQVEDLTHYYCAQFYSYPYTFGGGKLEIK
modifications: Amino Acid sequence of heavy chain of monoclonal antibody 180A 3D3; Amino Acid sequence of light chain of monoclonal antibody 180A 3D3
With B4 the “specificity for naltrexone over the other key opioids tested in the inhibition ELISA assay” value [2] was “good specificity for naltrexone” and the “change of naloxone/naltrexone cross reactivity response in the presence of the antibody blocker” value [3] was “cross reactivity of naloxone and naltrexone changes from a positive to a negative response to the cutoff”.
